Experiment [1] concerns the target bison NHA2ΔN (structural construct, tag removed by TEV) (Bison bison). Kind of experiment: cryo-EM structure.
Experiment [2] has the same target. The experiment can be described thus: cryo-EM structure. This is another data set of the same source.

Like-named read-outs stand apart in the source and are kept apart here.

Turning to “bison NHA2ΔN (structural construct, tag removed by TEV) (domain or fragment)”, the stoichiometry N in experiment [1] and in experiment [2] was 2 throughout.

For orientation: stoichiometry N means the number of molecules, sites or subunits per partner or assembly.

The values above are taken from doi:10.1101/2021.07.22.453398.
